Laboratory results published in patent US20230167458A1, “FORSKOLIN-INDUCIBLE PROMOTERS AND HYPOXIA-INDUCIBLE PROMOTERS” (ASKLEPIOS BIOPHARMACEUTICAL, INC., priority 2020, published 2023).
Entries after “also recorded” stand apart in the source; their conditions may differ.

Assays:
[1] = system: Huh7 human liver cell line; experiment: Luciferase expression from promoters in pAAV vector (with ITRs) in Huh7, forskolin or NKH477 induction; set-up: fold induction with forskolin: dose or concentration left out as unconfirmed
Description: The forskolin-inducible promoters RTV-017, RTV-019 and FORCYB1 were then used to drive expression of luciferase in a pAAV vector in the Huh7 human liver cell line. […] This experiment was performed to investigate the effect of the Inverted Terminal Repeats (ITRs) on the activity of the promoters.
The cells were seeded, transfected and induced as described above. Luciferase expression was measured as described above. In this experiment, the cells were induced by using 20 pM forskolin or 7.2 pM of the water soluble derivative NKH477.

[2] = system: Huh7 human liver cell line; experiment: Luciferase expression from forskolin-inducible promoters, transient transfection of PM-RQ plasmid in Huh7; format: cell-based; set-up: luciferase activity following induction / fold induction of promoter (luciferase activity): dose or concentration left out as unconfirmed
Description: Luciferase readouts were normalised to β-galactosidase to produce normalised relative luminometer units (RLUs). β-galactosidase containing pcDNA6 plasmid was used as internal control for transfection efficiency (Thermofisher, V22020). β-galactosidase activity was measured as per manufacturer's instructions (Mammalian βGalactosidase Assay Kit, 75707/75710, Thermo Scientific) using 25 μl of lysate. 25 μl of lysate was transferred into a microplate well and mixed with 25 μl of β-galactosidase Assay Reagent, equilibrated to room temperature. The mixture was incubated at 37° C. for 30 min and absorbance measured at 405 nm.
The forskolin-inducible promoters were initially used to drive expression of luciferase in the Huh7 human liver cell line and the C2C12 […]. The promoter constructs were used to drive expression of luciferase in the PM-RQ plasmid. The tested promoters were synthesised directly upstream of the ATG of PM-RQ plasmid.
• Huh7 cells which are a human liver cell line • DPBS: without CaCl2, without MgCl2 (Gibco, 14190-094) • DMEM (Sigma, D6546) • FBS (Sigma, F9665) • Pen-Strep (Sigma, P4333) • Promega Fugene-HD (E2311) • Forskolin (Sigma, F6886) • NKH477 (Sigma, N3290) • LARII (Dual Luciferase Reporter 1000 assay system, Promega, E1980) • 48 well plates flat bottom (353230, Corning) • Trypsin-EDTA (25200-056, Gibco) • T25 & T75 flask (353108, 353136, Corning) • 15 ml Falcon tubes (430791, Corning) • Stripettes 5 ml, 10 ml and 25 ml (4101,4051,4251, Corning)
Cells were seeded onto a 48 well plate at a density of 25,000 cells/300 μl
• On the day of transfection, DNA to be transfected was diluted to a 100 ng/μl stock solution. DNA to be transfected was the RTV-017, RTV-019 or CMV-IE promoter driving luciferase in the PM-RQ plasmid. • Per 48 well transfection, 45 ng of DNA was mixed with 4.1 μl of Optimem medium. • 0.5 μl of […] was mixed with 4 μl of Optimem medium. • These 2 solutions were mixed and incubated at room temperature for 15 minutes. • The final solution was then added to the well drop wise. • 3 hrs after transfection the inducer was added to the appropriate wells at the indicated concentration. Inducer was forskolin at […].
• 24 hrs after induction, the luciferase activity was measured as described below.
• Luciferase activity was measured using LARII (Dual Luciferase Reporter 1000 assay system, Promega, E1980) • 24 hours after induction, the media was removed from the cells • The cells were washed once in 300 μl of DPBS. • Cells were lysed using 100 μl of passive lysis buffer and incubated with rocking for 15 minutes. • The cell debris was pelleted by centrifugation of the plate at max speed in a benchtop centrifuge for 1 min • For luciferase, 10 μl sample was transferred into white 96-well plate and luminescence measured by injection of 50 μl of LARII substrate
RTV-017 and RTV-019 were transiently transfected into the human liver cell line Huh7 (FIG. 2). RTV-019 was transiently transfected into the […] C2C12 (FIG. 3). The activity of the promoters was assessed using luciferase activity. The luciferase activity was measured with and without the presence of […] forskolin.

HEK293-F = experiment: Luciferase time course under hypoxia, transiently transfected HEK293-F; format: cell-based, human; conditions: 5% oxygen, 3, 5 and 24 hrs
Description: The constructs were initially used to drive luciferase expression in HEK293-F and HEK293-T in hypoxia.
40 ml of cells were grown in a 250 ml vented Erlenmeyer flask (Sigma-Aldrich CLS431144) at 37° C., 20% O2, 8% CO2 with agitation at 100 rpm. Cells were seeded as described in the manufacturer's instructions (300,000 cells/ml). HEK293-F were obtained from Thermofisher, R79007.
One day before transfection, the cells were counted using a haemocytometer and split to 500,000 cells/ml.
On the day of transfection, the cells are seeded to 1,000,000 cells/ml in 500 μl of appropriate medium (Freestyle 293 expression medium, 12338002) in a 24 well plate. […] of DNA per well was then added to 10 μl of OptiMem medium (Thermofisher; 11058021) and incubated for 5 minutes at room temperature.
Concurrently, 0.625 μl of Max reagent (Thermofisher, 16447100) was made up to 10 μl by addition of OptiMem and incubated for 5 minutes at room temperature. After this incubation, both mixes were added to the same tube and incubated at room temperature for 25-30 minutes. […]
After transfection the cells were incubated for 24 hrs in normoxia conditions (20% oxygen) before being switched to a gas mix of 5% oxygen, 10% carbon dioxide and 85% nitrogen (hypoxia). […] Induction of the promoters was assessed by using luciferase activity after 3, 5 and 24 hrs in hypoxia.
Luciferase activity was measured using LARII (Dual Luciferase Reporter 1000 assay system, Promega, E1980).
Media was removed from the cells at the respective time point (0, 3, 5, 24 hrs after induction). […] 10 μl of supernatant was pipetted into white 96-well plate and luminescence measured by addition of 50 μl of LARII substrate.
β-galactosidase activity was measured as per manufacturer's instructions (Mammalian βGalactosidase Assay Kit, 75707/75710, Thermo Scientific) using 25 μl of lysate. […] The mixture was incubated at 37° C. for 30 min and absorbance measured at 405 nm.
Luciferase readouts were normalised to β-galactosidase to produce normalised relative luminometer units (RLUs).

Molecule	fold induction with forskolin ([1]; Huh7) [fold]	luciferase activity without induction (background) ([1]; Huh7)	fold induction with NKH477 ([1]; Huh7, 7.2 pM NKH477) [fold]	luciferase activity following induction ([1]; Huh7, or 7.2 pM NKH477)	luciferase activity without induction (background) ([2]; Huh7, before addition of forskolin)	luciferase activity following induction ([2]; Huh7, forskolin)	fold induction of promoter (luciferase activity) ([2]; Huh7 liver cells, PM-RQ plasmid, forskolin, 24 hrs after induction) [fold]	effect of switch to hypoxia on luciferase activity (HEK293-F)
RTV-017: synthetic forskolin-inducible promoter, SEQ ID NO: 43; 8× AP1(1) TFBS and CMV-MP minimal promoter (nucleic acid, Synp-RTV-017, 8× AP1(1) TFBS and CMV-MP minimal promoter) DNA: TGAGTCAGATGATGCGTAGCTAGTAGTTGAGTCAGATGATGCGTAGCTAGTAGTTGAGTCAGATGATGCGTAGCTAGTAGTTGAGTCAGATGATGCGTAGCTAGTAGTTGAGTCAGATGATGCGTAGCTAGTAGTTGAGTCAGATGATGCGTAGCTAGTAGTTGAGTCAGATGATGCGTAGCTAGTAGTTGAGTCAGTAGTCGTATGCTGATGCGCAGTTAGCGTAGCTGAGGTACCGTCGACGATATCGGATCCAGGTCTATATAAGCAGAGCTCGTTTAGTGAACCGTCAGATCGCCTAGATACGCCATCCACGCTGTTTTGACCTCCATAGAAGATCGCCACC	44	low background activity	23	high activity	low background activity	high activity; also recorded: much higher activity	13	
CMV minimal promoter: CMV minimal promoter, SEQ ID NO: 28; named as control in FIG. 13 legend (nucleic acid) DNA: AGGTCTATATAAGCAGAGCTCGTTTAGTGAACCGTCAGATCGCCTAGATACGCCATCCACGCTGTTTTGACCTCCATAGAAGATCGCCACC								does not change
